Test results published in article PMC10866649.

Columns and labels:
[1] = biological target: T1, Human dendritic cell–specific ICAM-3–grabbing non-integrin (DC-SIGN; CD209), Q9NNX6; assay: flow cytometry on cells (hDC-SIGN+/SIGN-R1-/- murine BMDMs); settings: type I FcγRs blocked; PBS control = 1; read off a plot
T1 chain: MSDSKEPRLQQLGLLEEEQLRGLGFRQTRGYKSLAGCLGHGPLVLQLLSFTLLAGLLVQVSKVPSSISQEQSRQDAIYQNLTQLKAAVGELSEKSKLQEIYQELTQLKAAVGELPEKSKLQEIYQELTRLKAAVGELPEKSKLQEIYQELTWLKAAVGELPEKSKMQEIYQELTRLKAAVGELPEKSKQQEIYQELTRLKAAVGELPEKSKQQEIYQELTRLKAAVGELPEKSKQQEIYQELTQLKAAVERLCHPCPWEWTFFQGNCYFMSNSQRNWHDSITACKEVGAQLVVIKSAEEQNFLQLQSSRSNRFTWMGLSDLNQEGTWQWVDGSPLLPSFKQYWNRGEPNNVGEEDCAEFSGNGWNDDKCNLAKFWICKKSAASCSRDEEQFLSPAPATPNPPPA

[2] = biological target: Human neonatal Fc receptor (hFcRn), P55899; assay: SPR; biolayer interferometry (citing paragraph); settings: chain shown with the change
Sequence of Human neonatal Fc receptor (hFcRn), P55899 (P55899 24-297, chain 1 of 2): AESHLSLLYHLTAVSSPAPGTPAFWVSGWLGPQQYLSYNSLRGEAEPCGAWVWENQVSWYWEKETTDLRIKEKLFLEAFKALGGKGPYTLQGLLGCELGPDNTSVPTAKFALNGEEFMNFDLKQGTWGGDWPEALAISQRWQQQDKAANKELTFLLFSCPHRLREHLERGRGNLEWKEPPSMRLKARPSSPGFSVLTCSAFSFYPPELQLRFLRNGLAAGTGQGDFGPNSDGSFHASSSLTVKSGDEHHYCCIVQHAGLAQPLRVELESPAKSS
Sequence of Human neonatal Fc receptor (hFcRn), P55899 (chain, as listed by the source, chain 2 of 2): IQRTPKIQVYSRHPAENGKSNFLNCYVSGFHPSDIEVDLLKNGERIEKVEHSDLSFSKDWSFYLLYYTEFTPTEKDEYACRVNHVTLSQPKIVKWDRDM

B1: Wild-type human IgG1 Fc (Fc^WT) M252Y; S254T; T256E; H433K; N434F (protein)
chain: DKTHTCPPCPAPELLGGPSVFLFPPKPKDTLYITREPEVTCVVVDVSHEDPEVKFNWYVDGVEVHNAKTKPREEQYNSTYRVVSVLTVLHQDWLNGKEYKCKVSNKALPAPIEKTISKAKGQPREPQVYTLPPSRDELTKNQVSLTCLVKGFYPSDIAVEWESNGQPENNYKTTPPVLDSDGSFFLYSKLTVDKSRWQQGNVFSCSVMHEALKFHYTQKSLSLSPGK
response (fold change in MFI (normalized to PBS)) [1]: 1.4
Kd [2]: 5.2 nM
